Measurements taken from patent US20230301998A1 (SANFORD BURNHAM PREBYS MEDICAL DISCOVERY INSTITUTE, published 2023).

Assays:
Test in all cases: Flag IP of Flag-SHARPIN from WM115 lysate, on-bead tryptic digestion, LC/MS-MS
[1] = molecular target: T1, HSPD1 (human, UniProt P10809 27-573)
T1 construct: endogenous protein co-purified from WM115 lysate
Description: (§1) To identify SHARPIN-interacting proteins, WM115 cells were transfected with Flag-tagged SHARPIN or control empty plasmid. Cell lysates were prepared using 1% Triton X-100 buffer [50 mM Tris-HCl, pH7.4, 1% (v/v) Triton X-100, 150 mM NaCl, 1 mM EDTA, and protease and phosphatase inhibitor cocktails (Thermo Fisher Scientific)]. Lysates were pre-cleared with protein A/G beads (Santa Cruz Biotechnology) for 1 h at 4° C. followed by immunoprecipitation using FLAG-M2-agarose beads (Sigma-Aldrich) overnight at 4° C. Beads were then washed with lysis buffer and TBS containing lx protease inhibitor cocktail before being subjected to on-bead tryptic digestion followed by mass spectrometry. In Vitro Methylation Assay.

[2] = molecular target: T2, HSPA9 (human, UniProt P38646 47-679)
T2 construct: endogenous protein co-purified from WM115 lysate
T2 sequence (P38646 47-679 limits assumed): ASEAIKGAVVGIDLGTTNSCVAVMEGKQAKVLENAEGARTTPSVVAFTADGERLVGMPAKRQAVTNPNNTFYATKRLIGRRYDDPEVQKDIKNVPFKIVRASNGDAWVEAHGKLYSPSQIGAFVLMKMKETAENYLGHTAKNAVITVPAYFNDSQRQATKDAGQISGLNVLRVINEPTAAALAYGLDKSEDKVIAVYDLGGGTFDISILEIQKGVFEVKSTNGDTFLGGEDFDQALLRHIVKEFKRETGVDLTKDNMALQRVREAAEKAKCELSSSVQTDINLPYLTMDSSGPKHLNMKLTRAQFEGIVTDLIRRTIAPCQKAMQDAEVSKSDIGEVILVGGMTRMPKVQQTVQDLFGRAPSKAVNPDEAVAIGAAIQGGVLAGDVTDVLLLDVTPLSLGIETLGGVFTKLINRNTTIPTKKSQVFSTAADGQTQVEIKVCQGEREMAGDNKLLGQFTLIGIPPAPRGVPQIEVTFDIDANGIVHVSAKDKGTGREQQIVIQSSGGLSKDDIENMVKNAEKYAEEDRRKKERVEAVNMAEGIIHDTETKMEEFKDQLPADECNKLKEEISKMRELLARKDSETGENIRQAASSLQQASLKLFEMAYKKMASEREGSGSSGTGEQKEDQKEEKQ
Description: as §1

[3] = molecular target: T3, TUBB (human, UniProt P07437 1-444)
T3 construct: endogenous protein co-purified from WM115 lysate
T3 sequence (P07437 whole entry): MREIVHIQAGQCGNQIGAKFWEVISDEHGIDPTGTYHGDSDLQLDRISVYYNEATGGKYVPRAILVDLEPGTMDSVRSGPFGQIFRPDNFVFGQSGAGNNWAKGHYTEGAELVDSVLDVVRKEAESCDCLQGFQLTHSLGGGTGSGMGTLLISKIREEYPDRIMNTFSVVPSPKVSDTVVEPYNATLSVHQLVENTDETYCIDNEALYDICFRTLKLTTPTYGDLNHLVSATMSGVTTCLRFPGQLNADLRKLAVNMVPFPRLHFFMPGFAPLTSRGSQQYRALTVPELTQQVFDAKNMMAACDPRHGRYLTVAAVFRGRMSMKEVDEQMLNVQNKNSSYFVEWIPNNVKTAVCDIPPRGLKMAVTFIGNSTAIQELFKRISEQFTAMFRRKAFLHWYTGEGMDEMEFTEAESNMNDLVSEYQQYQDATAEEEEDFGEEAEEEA
Description: as §1

[4] = molecular target: T4, Gamma-interferon-inducible protein 16 (IFI16) (human, UniProt Q16666 1-785)
T4 construct: Endogenous protein in WM115 / A375
T4 sequence: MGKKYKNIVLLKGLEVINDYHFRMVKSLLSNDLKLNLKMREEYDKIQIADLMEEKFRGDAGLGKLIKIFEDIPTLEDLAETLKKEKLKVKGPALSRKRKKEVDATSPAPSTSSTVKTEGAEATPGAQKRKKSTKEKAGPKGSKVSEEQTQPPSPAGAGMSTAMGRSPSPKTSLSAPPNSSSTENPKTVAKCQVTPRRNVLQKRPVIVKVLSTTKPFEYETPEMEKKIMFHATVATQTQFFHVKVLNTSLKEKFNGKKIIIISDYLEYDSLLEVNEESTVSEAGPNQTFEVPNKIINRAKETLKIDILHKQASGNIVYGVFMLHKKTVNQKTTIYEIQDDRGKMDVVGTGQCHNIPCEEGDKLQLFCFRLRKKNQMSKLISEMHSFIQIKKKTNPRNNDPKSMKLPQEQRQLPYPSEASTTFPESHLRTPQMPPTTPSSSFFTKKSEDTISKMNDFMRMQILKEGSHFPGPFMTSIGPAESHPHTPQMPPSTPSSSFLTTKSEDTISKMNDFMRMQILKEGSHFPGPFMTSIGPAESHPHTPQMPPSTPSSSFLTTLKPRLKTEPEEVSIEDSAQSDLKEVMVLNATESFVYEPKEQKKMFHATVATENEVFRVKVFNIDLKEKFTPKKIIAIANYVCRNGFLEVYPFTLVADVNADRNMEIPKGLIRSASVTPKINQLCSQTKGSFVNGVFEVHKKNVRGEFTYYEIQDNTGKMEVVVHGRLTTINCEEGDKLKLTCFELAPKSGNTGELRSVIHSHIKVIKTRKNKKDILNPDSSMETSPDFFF
Description: as §1

[5] = molecular target: T5, PKM (human, UniProt P14618 2-531, limits assumed)
T5 construct: endogenous protein co-purified from WM115 lysate
T5 sequence (P14618 2-531 limits assumed): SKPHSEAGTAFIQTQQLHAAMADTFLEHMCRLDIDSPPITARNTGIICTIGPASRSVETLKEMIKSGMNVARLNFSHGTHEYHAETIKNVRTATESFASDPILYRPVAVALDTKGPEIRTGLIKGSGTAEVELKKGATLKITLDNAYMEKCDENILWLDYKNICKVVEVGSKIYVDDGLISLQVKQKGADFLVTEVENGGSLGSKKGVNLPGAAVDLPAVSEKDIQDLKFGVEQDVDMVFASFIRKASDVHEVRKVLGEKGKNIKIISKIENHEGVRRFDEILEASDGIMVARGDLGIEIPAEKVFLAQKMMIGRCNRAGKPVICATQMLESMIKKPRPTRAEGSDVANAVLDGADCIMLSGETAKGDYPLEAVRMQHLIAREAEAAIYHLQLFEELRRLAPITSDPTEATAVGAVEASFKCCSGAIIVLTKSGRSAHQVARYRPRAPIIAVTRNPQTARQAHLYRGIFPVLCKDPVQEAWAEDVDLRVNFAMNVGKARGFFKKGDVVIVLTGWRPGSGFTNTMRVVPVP
Description: as §1

[6] = molecular target: T6, XRCC5 (human, UniProt P13010 2-732)
T6 construct: endogenous protein co-purified from WM115 lysate
T6 sequence (P13010 2-732 limits assumed): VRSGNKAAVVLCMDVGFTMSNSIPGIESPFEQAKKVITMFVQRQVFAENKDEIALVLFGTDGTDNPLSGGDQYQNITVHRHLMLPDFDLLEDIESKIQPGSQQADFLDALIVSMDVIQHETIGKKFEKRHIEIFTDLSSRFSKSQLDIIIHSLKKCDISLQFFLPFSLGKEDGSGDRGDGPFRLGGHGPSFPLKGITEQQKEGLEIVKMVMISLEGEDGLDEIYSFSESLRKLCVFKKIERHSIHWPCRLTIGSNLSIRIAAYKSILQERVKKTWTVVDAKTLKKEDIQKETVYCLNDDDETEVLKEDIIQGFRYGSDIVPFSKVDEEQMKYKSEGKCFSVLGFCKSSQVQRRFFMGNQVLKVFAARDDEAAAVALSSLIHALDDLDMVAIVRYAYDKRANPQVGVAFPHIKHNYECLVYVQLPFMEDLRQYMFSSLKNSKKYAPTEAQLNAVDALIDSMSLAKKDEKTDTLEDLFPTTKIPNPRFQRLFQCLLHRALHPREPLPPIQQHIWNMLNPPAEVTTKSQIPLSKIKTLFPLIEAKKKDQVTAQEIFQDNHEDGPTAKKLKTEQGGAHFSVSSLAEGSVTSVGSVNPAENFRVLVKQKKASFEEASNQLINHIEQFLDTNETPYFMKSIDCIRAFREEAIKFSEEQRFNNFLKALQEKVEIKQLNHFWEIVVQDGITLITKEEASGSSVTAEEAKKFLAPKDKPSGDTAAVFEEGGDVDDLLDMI
Description: as §1

[7] = molecular target: T7, PDIA6 (human, UniProt Q15084 20-440)
T7 construct: endogenous protein co-purified from WM115 lysate
T7 sequence (looked up): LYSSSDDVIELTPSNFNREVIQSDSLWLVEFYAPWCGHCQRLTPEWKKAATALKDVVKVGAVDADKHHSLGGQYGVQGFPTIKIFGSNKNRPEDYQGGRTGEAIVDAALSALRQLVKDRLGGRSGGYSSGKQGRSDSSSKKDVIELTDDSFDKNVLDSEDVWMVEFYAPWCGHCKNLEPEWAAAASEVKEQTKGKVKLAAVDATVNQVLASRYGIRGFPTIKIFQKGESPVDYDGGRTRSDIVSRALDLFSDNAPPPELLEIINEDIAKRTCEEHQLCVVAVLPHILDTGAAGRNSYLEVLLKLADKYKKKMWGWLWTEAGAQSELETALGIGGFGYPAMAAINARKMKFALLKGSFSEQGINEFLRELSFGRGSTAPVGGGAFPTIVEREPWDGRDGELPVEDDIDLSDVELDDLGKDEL
Description: as §1

Measured: binding result

T1 sequence (P10809 27-573 limits assumed): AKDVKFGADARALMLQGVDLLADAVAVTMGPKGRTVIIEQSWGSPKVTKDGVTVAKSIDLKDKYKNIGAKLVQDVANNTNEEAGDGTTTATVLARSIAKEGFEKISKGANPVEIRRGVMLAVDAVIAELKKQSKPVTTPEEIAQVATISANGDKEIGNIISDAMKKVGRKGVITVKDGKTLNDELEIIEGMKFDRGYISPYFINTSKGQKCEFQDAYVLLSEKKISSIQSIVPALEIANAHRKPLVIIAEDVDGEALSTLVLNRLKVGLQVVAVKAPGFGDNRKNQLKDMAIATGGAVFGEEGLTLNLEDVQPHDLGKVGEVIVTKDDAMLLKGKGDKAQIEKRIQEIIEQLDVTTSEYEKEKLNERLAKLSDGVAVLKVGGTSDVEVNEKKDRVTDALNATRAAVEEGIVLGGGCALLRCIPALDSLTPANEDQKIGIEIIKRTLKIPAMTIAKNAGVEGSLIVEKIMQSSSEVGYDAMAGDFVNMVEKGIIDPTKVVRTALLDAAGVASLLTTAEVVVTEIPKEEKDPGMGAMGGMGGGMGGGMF

B1: Flag-tagged SHARPIN (other, human, UniProt Q9H0F6 1-387, looked up)
chain: MAPPAGGAAAAASDLGSAAVLLAVHAAVRPLGAGPDAEAQLRRLQLSADPERPGRFRLELLGAGPGAVNLEWPLESVSYTIRGPTQHELQPPPGGPGTLSLHFLNPQEAQRWAVLVRGATVEGQNGSKSNSPPALGPEACPVSLPSPPEASTLKGPPPEADLPRSPGNLTEREELAGSLARAIAGGDEKGAAQVAAVLAQHRVALSVQLQEACFPPGPIRLQVTLEDAASAASAASSAHVALQVHPHCTVAALQEQVFSELGFPPAVQRWVIGRCLCVPERSLASYGVRQDGDPAFLYLLSAPREAPATGPSPQHPQKMDGELGRLFPPSLGLPPGPQPAASSLPSPLQPSWSCPSCTFINAPDRPGCEMCSTQRPCTWDPLAAAST
notes: also called Flag-SHARPIN; not shown: FLAG tag
binds: all assays above
